Target: the molecule itself
Test: AUC; sedimentation velocity, sample about 1.0 mg/mL, 50 mM potassium phosphate pH 7.4, 0.1 M NaCl, 293 K, c(s) analysis in SEDFIT converted to c(M); native mass 30 kDa

B1: Mytilisepta virgata R-type lectin SeviL (natural protein, UniProt A0A646QV53 1-129, looked up)
chain: MSSVTIGKCYIQNRENGGRAFYNLGRKDLGIFTGKMYDDQIWSFQKSDTPGYYTIGRESKFLQYNGEQVIMSDIEQDTTLWSLEEVPEDKGFYRLLNKVHKAYLDYNGGDLVANKHQTESEKWILFKAY
notes: SeviL (variant SeviL-1), R-type (ricin B-type) lectin of Mytilisepta virgata, 129 amino acids, 15 kDa; Native protein isolated from tissue; also called SeviL-1; mytvir1; source: purified from Mytilisepta virgata mantles and gills (lactosyl-agarose column, eluted with 50 mM lactose)
- stoichiometry N: 2

From paper PMC7317968, “A GM1b/asialo‐GM1 oligosaccharide‐binding R‐type lectin from purplish bifurcate mussels Mytilisepta virgata and its effect on MAP kinases” (The Febs Journal, 2019)
